Assay results: patent US20210388087A1 (Chugai, published 2021)
Substitutions are numbered along the chain they refer to. Names and notes keep the numbering of the source.

T1: Human CD3eg linker (human)
T1 construct: Single-chain construct; also called recombinant human CD3
T1 chain: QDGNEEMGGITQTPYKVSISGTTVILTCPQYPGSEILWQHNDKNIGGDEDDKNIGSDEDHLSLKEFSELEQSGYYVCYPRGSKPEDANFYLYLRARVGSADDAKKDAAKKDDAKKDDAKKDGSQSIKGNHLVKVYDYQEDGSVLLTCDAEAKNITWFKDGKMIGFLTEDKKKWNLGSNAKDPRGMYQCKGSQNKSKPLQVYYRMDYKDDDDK

B1: H183/L072 VL S52R (antibody, name in Kabat numbering, V domains shown)
VH: QVQLVESGGGLVQPGRSLRLSCAASGFTFSNAWMHWVRQAPGKGLEWVAQIKDKGNAYAAYYAPSVKGRFTISRDDSKNSIYLQMNSLKTEDTAVYYCHYVHYASASTVLPAFGVDAWGQGTTVTVSS
VL: DIVMTQSPLSLPVTPGEPASISCQASQELVHMNRNTYLHWYQQKPGQAPRLLIYKVRNRFPGVPDRFSGSGSGTDFTLKISRVEAEDVGVYYCAQGTSVPFTFGQGTKLEIK
B2: H183/L072 VL S93A (antibody, name in Kabat numbering, V domains shown)
VH: B1 VH
VL: B1 VL with R57S, S98A
B3: H183/L072 VL S93M (antibody, name in Kabat numbering, V domains shown)
VH: B1 VH
VL: B1 VL with R57S, S98M
B4: H183/L072 VL S93R (antibody, name in Kabat numbering, V domains shown)
VH: B1 VH
VL: B1 VL with R57S, S98R
B5: H183/L072 VL S93I (antibody, name in Kabat numbering, V domains shown)
VH: B1 VH
VL: B1 VL with R57S, S98I
B6: H183/L072 VL S93H (antibody, name in Kabat numbering, V domains shown)
VH: B1 VH
VL: B1 VL with R57S, S98H
B7: H183/L072 VL S93T (antibody, name in Kabat numbering, V domains shown)
VH: B1 VH
VL: B1 VL with R57S, S98T
B8: H183/L072 VL S52W (antibody, name in Kabat numbering, V domains shown)
VH: B1 VH
VL: B1 VL with R57W
B9: H183/L072 VL S93K (antibody, name in Kabat numbering, V domains shown)
VH: B1 VH
VL: B1 VL with R57S, S98K
B10: H183/L072 VL S52T (antibody, name in Kabat numbering, V domains shown)
VH: B1 VH
VL: B1 VL with R57T
B11: H183/L072 VL S93D (antibody, name in Kabat numbering, V domains shown)
VH: B1 VH
VL: B1 VL with R57S, S98D
B12: H183/L072 VL S52V (antibody, name in Kabat numbering, V domains shown)
VH: B1 VH
VL: B1 VL with R57V
B13: H183/L072 VL S93N (antibody, name in Kabat numbering, V domains shown)
VH: B1 VH
VL: B1 VL with R57S, S98N
B14: H183/L072 VL S93E (antibody, name in Kabat numbering, V domains shown)
VH: B1 VH
VL: B1 VL with R57S, S98E
B15: H183/L072 VL S93F (antibody, name in Kabat numbering, V domains shown)
VH: B1 VH
VL: B1 VL with R57S, S98F
B16: H183/L072 VL S93L (antibody, name in Kabat numbering, V domains shown)
VH: B1 VH
VL: B1 VL with R57S, S98L
B17: H183/L072 VL S93G (antibody, name in Kabat numbering, V domains shown)
VH: B1 VH
VL: B1 VL with R57S, S98G
B18: H183/L072 VL S93Q (antibody, name in Kabat numbering, V domains shown)
VH: B1 VH
VL: B1 VL with R57S, S98Q

Biological target: T1, Human CD3eg linker
Experiment: SPR; fold vs parent H183/L072

Binder | fold change of affinity [fold]
B1 | 1.8
B2 | 1.1
B3 | 1
B4 | 1
B5 | 0.8
B6 | 0.9
B7 | 1
B8 | 1.4
B9 | 1
B10 | 1.3
B11 | 0.7
B12 | 1.6
B13 | 0.8
B14 | 1
B15 | 1
B16 | 0.9
B17 | 0.8
B18 | 1
